Read-outs that look alike come from different tables or passages of the source.
How the values were obtained:
Test in all cases: SPR
[1] = target: complement factor H, allotypic variant Ile62 (human) (UniProt P08603)
[2] = target: complement factor H, allotypic variant Val62 (human) (UniProt P08603)
[3] = target: complement factor H, allotypic variant Ile62 (human) (UniProt P08603); remark: listed apart in the source

Substance “C3b (from UniProt P01024 23-667; P01024 749-1663) (domain or fragment)” has a Kd [1] of 1040 nM, a Kd [2] of 1330 nM and a Kd [3] of 1030 nM.

Reference: PMC3272369
